Results published in the supplement of paper PMC12042874.
± gives the uncertainty stated by the source.

Experiment: amyloid nucleation score (Sup35N fusion, yeast selection) (log enrichment); library NNK2; higher = more nucleation; inactive = no reads after selection
In short: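 On medium lacking adenine and uracil, psi-negative yeast expressing peptides of 20 random codons fused to Sup35N were grown 7 days at 30°C after a 24-hour induction with 100 μM copper sulfate. Illumina sequencing of input and output plasmid inserts gave the reads, and sequences under 100 input reads were excluded. The nucleation score is the DiMSum log enrichment of output over input reads, centred on the mode score of non-aggregating sequences.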

Row | Substance | amyloid nucleation score
1 | SYFHRWRATNFRTHKEAC | -1.02 ± 0.34
2 | GPVVIVDNFQYDCLA | -0.109 ± 0.76
3 | GCFERGNLFNFV | inactive
4 | NLSRV | -0.741 ± 0.34
5 | SQVQSFIFSPGLNNSKAEFT | -0.078 ± 0.8
6 | YKYMGLFSSIFNVLGSLISY | -1.95 ± 1.1
7 | WGQNNAEAFNYALMWVFRVW | 2.49 ± 0.11
8 | HFYHLDTSHSGWDLKSSY | 4.68 ± 0.075
9 | VLRRIVMMLSIS | -0.069 ± 0.32
10 | KLKRHL | -0.3 ± 0.24
11 | VYRYIVIYPFVKWHKTDRFC | -0.805 ± 0.33
12 | ARLLSG | 0.626 ± 0.5
13 | AVVVREAFLLFLKAIERAGI | -1.31 ± 0.55
14 | IDRCGTLVTPDGINGRVTRV | 0.951 ± 0.55
15 | MSFWMSTTINRN | 1.67 ± 0.1
16 | TDYQSVVDTVG | 0.019 ± 0.32
17 | LNNLLS | 0.315 ± 0.46
18 | ALLWWRVKLSAHYRYGLNYW | 0.27 ± 0.4
19 | ICLVRWDMKSRVDGTSGM | 5.194 ± 0.037
20 | NSNGTFGQCLVM | -0.293 ± 0.5
21 | ETSFSTVRRQILSLLRLVSS | 0.326 ± 0.33
22 | PLWCSAGALLYWYKYPWFWL | -0.332 ± 0.63
23 | IRGDNWMVCTTYTNSSFLRS | 0.215 ± 0.57
24 | GFSLNISKCVFLRFIWVFHF | -0.447 ± 1.1
25 | KRRKSSTTVSKVGTGLEWMG | 0.874 ± 0.15
26 | KFNFS | -0.908 ± 0.44

Row | Substance | amyloid nucleation score
27 | FCGISSR | -0.411 ± 0.56
28 | CKLHRVYAIFFSMD | inactive
29 | IYSHESASWWMRRARSS | 1.55 ± 0.25
30 | FCFSLCWDIFNVLSVFGYNF | -0.793 ± 1
31 | WRLVHCIHTIGYCMPVRLRG | 3.25 ± 0.088
32 | LLVGLIASPPGGTGVTLFPT | 4.15 ± 0.049
33 | WWETSIFFWEGIYT | -0.22 ± 0.8
34 | LRWAYMNTARQACMKAENG | -0.079 ± 0.62
35 | VYMKKINSFITMMSVHGNCS | 5.11 ± 0.068
36 | KRNDCLFGRVALCGMFRLSA | 0.198 ± 0.5
37 | RMSIICFALKYILYRWMFRL | 0.988 ± 0.74
38 | FGWGINRVYLVNM | 5.04 ± 0.088
39 | CDFAIPYYNGPYSQKFLMTS | -0.321 ± 0.8
40 | AYKTSHVWSLYRVHGV | 0.41 ± 0.25
41 | KRNVLLLYYSCSAICSRYVV | -0.22 ± 0.63
42 | GRCYIISCPESWHKPMYVAI | 0.142 ± 0.34
43 | SIGGMMVPLISLKYSY | -0.784 ± 1.1
44 | IDQCIYDHVHNWVRRVDTRS | 0.223 ± 0.18
45 | TMMSQVGMDR | 0.377 ± 0.34
46 | YELHRNAIPRRRSQDSL | -0.81 ± 0.39
47 | SLSGHDLNWRFI | 0.32 ± 0.74
48 | FQGEGISTAF | -1.32 ± 0.5
49 | FSMPTYSSALAFM | -0.352 ± 0.28
50 | CLSRHAHRRRGMVYAGDYRA | -0.256 ± 0.49
51 | DVREFSSDYSQVGVEVLVFL | 0.373 ± 0.42
52 | RGYFPFYNR | -0.907 ± 0.65

Row | Substance | amyloid nucleation score
53 | MLERHKDRTRSGLKRGARET | 0.84 ± 0.46
54 | LNKQRSCFNVMGGWRKIYPS | 0.783 ± 0.13
55 | KPWFVVDRKNFRSNSAPWLG | 0.073 ± 0.29
56 | TEILILMIGLIAGLYCEIRF | -0.231 ± 0.79
57 | VDLCDFCKLVASMVEDGSRE | inactive
58 | TGLGLIGLHSLVKVSRV | -0.255 ± 0.65
59 | KFIEHWYVFGYIFLRFYKFQ | -0.623 ± 1
60 | YKCDVICCFGIWVLMFEN | 5.25 ± 0.074
61 | KQHVRMYWIAALAPMSGRGW | 4.448 ± 0.042
62 | GTLGFDLKR | -0.507 ± 0.76
63 | SLNDKFSLMGLICFWWWCLV | -0.184 ± 0.79
64 | ENCLESWTCI | -1.08 ± 0.78
65 | YFRCTHYTKTGTLVGDISVC | -0.657 ± 0.38
66 | KDVCY | 1.31 ± 0.23
67 | WKESGVHRHFHTSIGKDRVL | inactive
68 | NVYSAYNLACFALLYCLLIW | 0.691 ± 0.8
69 | NRSTDAYFIILHICYTNGVY | -0.429 ± 0.61
70 | KILGWT | 0.836 ± 0.21
71 | GNRSTVLRSNLDVYLQDGTV | 1.51 ± 0.32
72 | YALVVLIWT | -1.43 ± 1.1
73 | FNAERFLQSIEMVWWDKGFL | -1.53 ± 0.41
74 | DCLICFKDICNFENNEMIGA | -0.556 ± 0.2
75 | RHLHYRRYKIAAKGLIVFMN | 3.95 ± 0.067
76 | SSYDLITIKEFIKSGRVK | -0.119 ± 0.35
77 | GGSLPMFWKIMPGRHCGK | -0.019 ± 0.32
78 | PCWLNGWERFHIWRFNGSVR | -0.281 ± 0.37

Row | Substance | amyloid nucleation score
79 | NMRSNRVSLVPDGMLRLSAN | 1.39 ± 0.28
80 | FHPVFGMFWRTSNERSGLFQ | -1.03 ± 0.48
81 | FLSSYVFLCWCSLVSWGGTW | 1.03 ± 0.66
82 | KGALCLSV | -0.148 ± 0.39
83 | YFLLTFDILLCRAFGTAGPE | inactive
84 | FCCARILVNVSCVGATCGMC | 8.258 ± 0.043
85 | VCRVFIKLYI | 1.03 ± 0.21
86 | TMPFWKDFQT | 0.183 ± 1
87 | YQPRAYGKSPSIQFGQIVKQ | 0.106 ± 0.31
88 | ACFWSVIVHTMKRTVQPQPK | 3.6 ± 0.09
89 | PCTVHASNRTLGHRVKSCSV | -0.515 ± 1.1
90 | HIVEDLRVSAFTFSIKFISE | 3.33 ± 0.099
91 | GLVFRS | inactive
92 | CGYVEV | 0.244 ± 0.65
93 | SIVFFNRC | 7.562 ± 0.05
94 | QFHFK | 0.036 ± 0.35
95 | CVIGCSGWKRIFIISILYRV | -0.562 ± 1
96 | RINMPTYLLNWFSCHNYRFS | 3.98 ± 0.093
97 | DHLNV | -0.401 ± 0.63
98 | MTKCTDHVRVDDVCLHIRGS | -0.255 ± 1.1
99 | STSFRASSGDKYEFDVKHLV | 0.195 ± 0.76
100 | GMWFLRLSSFTCI | 5.722 ± 0.049
101 | IGVVILNHADSSLVTL | 3.31 ± 0.091
102 | SNGMRNCKVCEFLLRLYASY | -1.15 ± 0.55
103 | INQFMRDFLDHLPCAYRVYN | -0.049 ± 0.55
104 | ISLHDRWIADPFVTACGKRY | 0.386 ± 0.19

Row | Substance | amyloid nucleation score
105 | QIRAPHGGYVYYAGVATYSN | -0.206 ± 1.1
106 | MIERMSNRGMACLFVETRSG | -0.149 ± 0.76
107 | LTVDCQDSLLYWHRMMSRPL | 0.853 ± 0.31
108 | PKSLCYSTLTRGWCQM | -0.418 ± 1
109 | ANSNIHLVPMTLSTDEVPLP | 0.413 ± 0.43
110 | VKEYYSTGSTWRLYWMWSDW | 0.282 ± 0.36
111 | LSLLVSLTRTMFNLNNTCTA | -0.17 ± 0.65
112 | LSYVWYTQIARPGNSGFNLL | 2.12 ± 0.14
113 | SNSNTSEWKTG | -0.156 ± 0.79
114 | TCVLKVFVL | -1.43 ± 1.1
115 | TLAFVNNYDLRLELDRIEVP | inactive
116 | DYLVSMTVNSASLFRYIERR | 5.209 ± 0.029
117 | TGCMSMLFKCAGMCQWWSGG | 6.71 ± 0.086
118 | AGKFSWDNPYILLVNTI | inactive
119 | VVGFF | inactive
120 | SVLTLTSIIYLGSCKFLNFM | 6.241 ± 0.032
121 | LRGYVY | 0.228 ± 1
122 | RLSLQTVRLPLLYIWDEDSW | 3.43 ± 0.15
123 | YGLLHQFRSCKRI | -0.682 ± 0.29
124 | LYQWSGLIKSVLNSGCGKVE | 0.315 ± 0.54
125 | SAACQCLDFWCSGLGQSQGL | 6.59 ± 0.075
126 | EWNAKLWSLPSGATGCKSQS | 1.16 ± 0.2
127 | ITDVFSDAACNRWQINYTQA | -0.832 ± 0.33
